Measured values reported in patent publication US20250250357A1 (NANJING ZAIMING PHARMACEUTICAL, published 2025).
Like-named read-outs stand apart in the source and are kept apart here.

How the values were obtained:
[1] = biological target: T1, human MSLN-R3 protein (human, UniProt Q13421 487-598); assay: ELISA, MSLN-R3 coated, antibody 0.01 nM
T1 construct: also called hMSLN-R3

[2] = biological target: T2, human MSLN-R3 on HEK293T-hMSLN-R3 recombinant cells (human, UniProt Q13421 487-606); assay: FACS, HEK293T-hMSLN-R3 cells
T2 construct: the C-terminal limit is uncertain; also called human MSLN-R3 membrane protein

[3] = biological target: T1, human MSLN-R3 protein; assay: ELISA, MSLN-R3 coated, antibody 1 nM
[4] = biological target: T1, human MSLN-R3 protein; assay: ELISA, MSLN-R3 coated, antibody 0.001 nM
[5] = biological target: T1, human MSLN-R3 protein; assay: ELISA, MSLN-R3 coated, antibody 100 nM
[6] = biological target: T1, human MSLN-R3 protein; assay: ELISA, MSLN-R3 coated, antibody 0.1 nM
[7] = biological target: T1, human MSLN-R3 protein; assay: ELISA, MSLN-R3 coated, antibody 0.0001 nM
[8] = biological target: T1, human MSLN-R3 protein; assay: ELISA, MSLN-R3 coated, antibody 10 nM
[9] = biological target: T3, human MSLN-hFc protein (Acro, Cat. No. MSN-H5253) (human, UniProt Q13421 296-580); assay: ELISA, coated human MSLN-hFc
T3 construct: bought

[10] = biological target: T2, human MSLN-R3 on HEK293T-hMSLN-R3 …; assay: FACS, HEK293T-hMSLN-R3 cells; remark: listed apart in the source
[11] = biological target: T2, human MSLN-R3 on HEK293T-hMSLN-R3 …; assay: FACS, HEK293T-hMSLN-R3 cells; remark: listed apart in the source
[12] = biological target: T2, human MSLN-R3 on HEK293T-hMSLN-R3 …; assay: FACS, HEK293T-hMSLN-R3 cells; remark: listed apart in the source
[13] = biological target: T2, human MSLN-R3 on HEK293T-hMSLN-R3 …; assay: FACS, HEK293T-hMSLN-R3 cells; remark: listed apart in the source
[14] = biological target: T4, monkey MSLN on HEK293T-monkey MSLN recombinant cells (monkey); assay: FACS, HEK293T-monkey MSLN cells
T4 construct: Full-length precursor as transfected; processing on the cell is not described; also called HEK293-monkey MSLN
T4 chain: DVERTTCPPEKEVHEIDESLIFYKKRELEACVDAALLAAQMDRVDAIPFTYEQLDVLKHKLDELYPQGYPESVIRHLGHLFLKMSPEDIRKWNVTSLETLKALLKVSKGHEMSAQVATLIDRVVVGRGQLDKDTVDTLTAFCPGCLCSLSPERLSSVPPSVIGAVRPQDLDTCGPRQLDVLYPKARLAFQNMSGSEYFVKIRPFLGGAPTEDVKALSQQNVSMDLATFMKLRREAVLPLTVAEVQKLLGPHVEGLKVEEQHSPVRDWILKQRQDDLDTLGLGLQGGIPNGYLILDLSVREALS

[15] = biological target: human MSLN on OVCAR3 tumor cells (human, UniProt Q13421 296-598); assay: FACS, OVCAR3 cells
[16] = biological target: T5, human MSLN-FL-his protein (human, UniProt Q13421 296-580); assay: competitive ELISA; row Tab142
T5 construct: made in HEK293E cells, purified on nickel column; also called hMSLN-FL-his; human MSLN full-length protein; not shown: His tag

[17] = biological target: T5, human MSLN-FL-his protein; assay: competitive ELISA; row F7.2.3
[18] = biological target: T5, human MSLN-FL-his protein; assay: SPR (Biacore), antibody captured on Protein A chip;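 note: flow cell at 25 °C, antigen injected for 240 s at five concentrations from 200 nM downward, dissociation followed up to 600 s, double-referenced, fitted with Langmuir 1:1 model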
[19] = biological target: T5, human MSLN-FL-his protein; assay: competitive ELISA; row Tab021
[20] = biological target: T5, human MSLN-FL-his protein; assay: competitive ELISA; row F7.18.10
[21] = biological target: T6, human MSLN-FL-his protein (human, UniProt Q13421 296-580); assay: SPR (Biacore), antibody captured on Protein A, MSLN-FL-his injected
T6 construct: also called hMSLN-FL-his; human MSLN full-length protein

T2 sequence (Q13421 495-614): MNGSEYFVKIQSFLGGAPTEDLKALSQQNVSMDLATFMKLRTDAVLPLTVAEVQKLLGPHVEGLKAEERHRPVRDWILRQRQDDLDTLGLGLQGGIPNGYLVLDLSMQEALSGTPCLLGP
T1 sequence (Q13421 495-606): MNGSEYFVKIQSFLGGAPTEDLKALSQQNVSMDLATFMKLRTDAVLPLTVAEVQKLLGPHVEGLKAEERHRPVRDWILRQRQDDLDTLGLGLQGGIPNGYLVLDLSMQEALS
human MSLN on OVCAR3 tumor cells, sequence (Q13421 other isoform, or with tags, fused parts or gaps): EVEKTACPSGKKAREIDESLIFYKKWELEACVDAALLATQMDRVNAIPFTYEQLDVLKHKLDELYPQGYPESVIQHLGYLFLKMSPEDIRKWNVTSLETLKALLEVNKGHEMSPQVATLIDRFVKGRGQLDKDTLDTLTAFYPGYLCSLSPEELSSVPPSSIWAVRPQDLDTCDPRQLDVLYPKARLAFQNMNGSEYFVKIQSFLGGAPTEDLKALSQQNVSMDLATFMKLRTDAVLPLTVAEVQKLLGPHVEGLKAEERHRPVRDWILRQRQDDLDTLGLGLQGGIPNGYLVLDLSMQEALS
T3 sequence (Q13421 other isoform, or with tags, fused parts or gaps limits assumed): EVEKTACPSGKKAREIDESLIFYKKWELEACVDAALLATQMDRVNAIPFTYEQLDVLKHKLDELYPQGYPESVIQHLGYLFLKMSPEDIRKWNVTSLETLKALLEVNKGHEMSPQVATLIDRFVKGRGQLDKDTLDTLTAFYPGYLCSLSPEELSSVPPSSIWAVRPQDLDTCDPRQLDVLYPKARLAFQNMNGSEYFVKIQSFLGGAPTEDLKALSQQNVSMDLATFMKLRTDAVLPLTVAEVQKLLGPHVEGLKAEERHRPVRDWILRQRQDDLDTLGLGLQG

B1: F3.38.10-L2H3a (scFv, not shown: small tags and cut ends)
scFv: DIVMTQSPDSLAVSLGERATINCRSSQSLIHSDGNTYLQWYQQKPGQSPKLLIYKVSNRFSGVPDRFSGSGSGTDFTLTISSLQAEDVAVYYCSQTTHVPFTFGQGTKLEIKGGGGSGGGGSGGGGSEVQLVQSGAEVKKPGASVKVSCKASGYIFTDYYMNWVRQAPGQRLEWMGVINPKQGVISHNQKFKGRVTITVDKSANTAYMELSSLRSEDTAVYYCANYGSRFYAMDYWGQGTTVTVSS
notes: also called S009-F3.38.10 humanized antibody VL2 + VH3a
Q: Which OD450 nm [1] does the source give for B1 here?
A: 0.05 OD

Q: And the EC50 [2]?
A: 166 nM

Q: What about the Maximum_MFI [2] of the same binder?
A: 795 MFI

Q: What about the OD450 nm [3] of the same binder?
A: 0.12 OD

Q: What about the OD450 nm [4] of the same binder?
A: 0.05 OD

Q: And the OD450 nm [5]?
A: 1.88 OD

Q: And the OD450 nm [6]?
A: 0.06 OD

Q: And the OD450 nm [7]?
A: 0.05 OD

Q: What about the OD450 nm [8] of the same binder?
A: 0.72 OD

B2: F3.38.10-L2H3a (scFv, not shown: small tags and cut ends)
scFv: DIVMTQSPDSLAVSLGERATINCRSSQSLIHSDGNTYLQWYQQKPGQSPKLLIYKVSNRFSGVPDRFSGSGSGTDFTLTISSLQAEDVAVYYCSQTTHVPFTFGQGTKLEIKGGGGSGGGGSGGGGSEVQLVQSGAEVKKPGASVKVSCKASGYIFTDYYMNWVRQAPGQRLEWMGVINPKQGVISHNQKFKGRVTITVDKSANTAYMELSSLRSEDTAVYYCANYGSRFYAMDYWGQGTTVTVSS
Q: Does B2 bind [9]?
A: no binding (tested: up to 100 nM)

B3: Tab111 (scFv, not shown: small tags and cut ends)
scFv: DVVMTQTPASVSEPVGGTVTIKCQASQRISSYLSWYQQKPGQRPKLLIFGASTLASGVPSRFKGSGSGTEYTLTISDLECADAATYYCQSYAYFDSNNWHAFGGGTEVVVGGGGSGGGGSGGGGSQQQLEESGGGLVKPEGSLTLTCKASGFDLGFYFYACWVRQAPGKGLEWIACIYTAGSGSTYYASWAKGRFTISKASSTTVTLQMTSLAAADTATYFCARSTANTRSTYYLNLWGPGTLVTVSS
notes: also called YP218 VL-(G4S)3-VH-his antibody; positive control
Q: With B3 as the binder, how does the OD450 nm [1] read?
A: 0.05 OD

Q: And the EC50 [2]?
A: 30.2 nM

Q: What about the Maximum_MFI [2] of the same binder?
A: 777 MFI

Q: And the OD450 nm [3]?
A: 0.25 OD

Q: And the OD450 nm [4]?
A: 0.05 OD

Q: What about the EC50 [10] of the same binder?
A: 0.76 nM

Q: And the Maximum_MFI [10]?
A: 2120 MFI

Q: And the OD450 nm [5]?
A: 1.89 OD

Q: And the EC50 [11]?
A: 1.22 nM

Q: What about the Maximum_MFI [11] of the same binder?
A: 4970 MFI

Q: And the EC50 [12]?
A: 0.76 nM

Q: And the Maximum_MFI [12]?
A: 2120 MFI

Q: What about the OD450 nm [6] of the same binder?
A: 0.07 OD

Q: And the OD450 nm [7]?
A: 0.05 OD

Q: And the EC50 [13]?
A: 1.6 nM

Q: What about the Maximum_MFI [13] of the same binder?
A: 3070 MFI

Q: And the OD450 nm [8]?
A: 1.05 OD

B4: F7.33.24 (scFv)
chain: QVQLQQPGTELVKPGASVKLSCKASGYTFTSYWMHWVKQRPGQGLEWIGNVNPSNGGSNYNEKFKNKATLTVDKSSSTADMQLNSLTSEDSAVYYCAPHYIGSRPGFAYWGQGTLVTVSGGGGGSGGGGSGGGGSDIVMTQSQKFMSTSVGDRVSVTCKASQNVGTNIAWYQQKPGQSPKALIYSASYRYSGVPDRFTGSGSGTDFTLTITNVQSEDLAEYFCQQYNSYPLTFGGGTKVEIK
Q: For B4, which EC50 [10] is on record?
A: 1.63 nM

Q: And the Maximum_MFI [10]?
A: 1490 MFI

Q: And the EC50 [14]?
A: 7.97 nM

Q: And the Maximum_MFI [14]?
A: 8910 MFI

Q: What about the EC50 [15] of the same binder?
A: 4.75 nM

Q: What about the Maximum_MFI [15] of the same binder?
A: 2260 MFI

B5: F3.38.10-L1H5 (scFv, not shown: small tags and cut ends)
scFv: DIVMTQTPLSLPVTPGEPASISCRSSQSLIHSDGNTYLQWYLQKPGQSPQLLIYKVSNRFSGVPDRFSGSGSGTDFTLKISRVEAEDVGVYYCSQTTHVPFTFGQGTKLEIKGGGGSGGGGSGGGGSEVQLVQSGAEVKKPGASVKVSCKASGYIFTDYYMNWVRQAHGQRLEWMGVINPKNGVISHNQKFKGRVTITVDKSANTAYMELSSLRSEDTAVYYCANYGSRFYAMDYWGQGTTVTVSS
Q: Does B5 bind [9]?
A: no binding (tested: up to 100 nM)

B6: S009-F7.2.3 (antibody, human IgG1, kappa, V domains shown)
VH: ELQLVESGGDLVKPGGSLKLSCAASGFTFSSNGMSWLRQTPDKRLEWVATISSGGRYTYYPDSVKGRFTISRDNAKNTLYLQMSSLKSEDTAMYYCARRGIYDYFDCWGQGTTLTVSS
VL: DIQMTQSPASLSISVGETVTITCRASENIHSSLAWYQQKQGKSPQLLVYAATNLADGVPSRFSGSGSGSQYSLKINSLQSEDFGTYYCQHFWGTPWTFGGGTKLDIKR
notes: human-murine chimeric antibody, human IgG1/kappa constant regions
Q: Which results are given for B6?
A: competition rate [16]: 3.48%; competition rate [17]: 93.3%; Kd [18]: 13.2 nM; koff [18]: 0.00851 s⁻¹; kon [18]: 643000 M⁻¹ s⁻¹; competition rate [19]: -3.83%; competition rate [20]: 54.1%

B7: S009-F3.7.3 (antibody, human IgG1, kappa, V domains shown)
VH: EVNFEESGGGLVQPGGSMKLSCVASGFTFSNYWMNWVRQSPEKGLEWVAQIRLKSDNYATHYAESVKGRFTISRDDFKSSVYLQMNNLRAEDTGIYYCTVGTGGYWGQGTTLTVSS
VL: DIVLTQSPASLAMSLGKRATISCRASESVSIVGTNVIHWFQQKPGQPPKLLIYHASNLETGVPARFSGSGSGTDFTLTIDPVEEDDVAIYHCLQSRKIPWTFGGGTKLEIKR
notes: chimeric, human IgG1/kappa
Q: Does B7 bind [21]?
A: no binding

B8: S009-F3.16.1 (antibody, human IgG1, kappa, V domains shown)
VH: EVKFEESGGGLVQPGGSMKLSCVASGFTFSNYWMNWVRQSPEKGLEWVAQIRLKSDNYATHYAESVKGRFSISRDDSKSSVYLQMNNLRAEDTGIYYCSVGTGGYWGQGTTLTVSS
VL: DIVLTQSPASLALSPGKRATISCRASESVSIIGTDVIHWFQQKPGQPPKLLIYHASNLETGVPARFSGSGSRTDFTLTIDPVEEDDVAIYYCLQSRKIPWTFGGGTKLEIKR
notes: chimeric, human IgG1/kappa
Q: Does B8 bind [21]?
A: no binding

B9: S009-F7.18.10 (antibody, human IgG1, kappa, V domains shown)
VH: QVQLQQSGAELVRPGTSVKVSCKASGYAFTNYLIEWVKQRPGQGLEWIGVINPGSGGTKYNEKFKGKATLTADKSSSTAYMQLSSLTSEDSAVYFCASDYDYDPFAYWGQGTLVTVSA
VL: DIVMTQSHKFMSTSVGDRVSITCKASQDVSTAVAWYQRKPGQSPKLLIYWASTRHTGVPDRFTGSGSGTDYTLTISYMQAEDLALYYCQQHYSTPYTFGGGTKLEIKR
notes: as for B6
Q: B9 was tested. Which competition rate [16] did it give?
A: 94.4%

Q: And the competition rate [17]?
A: -29.4%

Q: What about the Kd [18] of the same binder?
A: 0.64 nM

Q: And the koff [18]?
A: 0.00117 s⁻¹

Q: And the kon [18]?
A: 1.83e+06 M⁻¹ s⁻¹

Q: What about the competition rate [19] of the same binder?
A: 9.2%

Q: What about the competition rate [20] of the same binder?
A: 97%
